Several values for one entry are separate records, joined by “and”; a condition that tells them apart may be missing. Equal values may be shown once.
T1: hVISTA-Fc labelled with d2 (human, UniProt Q9H7M9 33-194, labelled with d2 (HTRF acceptor); site not stated)
T1 construct: It may be the same protein as rhVISTA-Fc of the Biacore assay, with a d2 label; also called VISTA-Fc-d2; not shown: Fc
T1 sequence: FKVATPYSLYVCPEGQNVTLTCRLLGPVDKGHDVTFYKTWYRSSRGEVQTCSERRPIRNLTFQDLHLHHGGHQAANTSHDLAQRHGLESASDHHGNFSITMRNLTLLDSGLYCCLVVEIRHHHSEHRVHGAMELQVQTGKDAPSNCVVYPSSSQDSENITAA

T2: recombinant human (rh) VISTA-His protein (human, UniProt Q9H7M9 33-194)
T2 construct: A soluble His-tagged protein is probably the extracellular domain; also called rhVISTA-TagHis; rhVISTA-his (monomer); not shown: His tag
T2 sequence: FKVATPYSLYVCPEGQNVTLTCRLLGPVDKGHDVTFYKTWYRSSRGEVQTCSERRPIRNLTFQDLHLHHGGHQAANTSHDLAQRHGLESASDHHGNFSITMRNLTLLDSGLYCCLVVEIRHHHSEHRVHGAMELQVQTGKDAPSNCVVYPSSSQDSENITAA


Legend:
[1] = molecular target: T1, hVISTA-Fc labelled with d2; assay: HTRF, VISTA-Fc-d2 and PSGL1-His/anti-His-Tb, pH 6; antibody at 1.25 µg/mL; mean of 3 experiments
[2] = molecular target: T1, hVISTA-Fc labelled with d2; assay: HTRF, VISTA-Fc-d2 and PSGL1-His/anti-His-Tb, pH 6; antibody at 0.31 µg/mL; mean of 3 experiments
[3] = molecular target: T1, hVISTA-Fc labelled with d2; assay: HTRF, VISTA-Fc-d2 and PSGL1-His/anti-His-Tb, pH 6; antibody at 0.63 µg/mL; mean of 3 experiments
[4] = molecular target: T1, hVISTA-Fc labelled with d2; assay: HTRF competition, VISTA-Fc-d2 and PSGL1-His/anti-His-Tb, pH 6
[5] = molecular target: T1, hVISTA-Fc labelled with d2; assay: HTRF, VISTA-Fc-d2 and PSGL1-His/anti-His-Tb, pH 6; antibody at 0.16 µg/mL; mean of 3 experiments
[6] = molecular target: T1, hVISTA-Fc labelled with d2; assay: HTRF, VISTA-Fc-d2 and PSGL1-His/anti-His-Tb, pH 6; antibody at 2.5 µg/mL; mean of 3 experiments
[7] = molecular target: T1, hVISTA-Fc labelled with d2; assay: HTRF, VISTA-Fc-d2 and PSGL1-His/anti-His-Tb, pH 6; antibody at 10 µg/mL; mean of 3 experiments
[8] = molecular target: T1, hVISTA-Fc labelled with d2; assay: HTRF, VISTA-Fc-d2 and PSGL1-His/anti-His-Tb, pH 6; antibody at 5 µg/mL; mean of 3 experiments
[9] = molecular target: T2, recombinant human (rh) VISTA-His protein; assay: direct ELISA, rhVISTA-His coated on plate; experiment n1
Description: (§1) After incubation, the coating solution was removed and plates were blocked by adding 250 μl blocking buffer (0.5% gelatin in 1×PBS) for at least 1 hour at 37° C.

[10] = molecular target: T2, recombinant human (rh) VISTA-His protein; assay: direct ELISA, rhVISTA-His coated on plate; mean EC50 of n1-n3
Description: as §1

[11] = molecular target: T2, recombinant human (rh) VISTA-His protein; assay: indirect ELISA, rhVISTA-His captured by coated anti-His antibody; experiment n3
Description: as §1

[12] = molecular target: T2, recombinant human (rh) VISTA-His protein; assay: indirect ELISA, rhVISTA-His captured by coated anti-His antibody; experiment n2
Description: as §1

[13] = molecular target: T2, recombinant human (rh) VISTA-His protein; assay: direct ELISA, rhVISTA-His coated on plate; Mean EC50 'Prism' n = 3
Description: as §1

[14] = molecular target: T2, recombinant human (rh) VISTA-His protein; assay: indirect ELISA, rhVISTA-His captured by coated anti-His antibody; experiment n1
Description: as §1

[15] = molecular target: T2, recombinant human (rh) VISTA-His protein; assay: indirect ELISA, rhVISTA-His captured by coated anti-His antibody; Mean EC50 'Prism' n = 3
Description: as §1

[16] = molecular target: T2, recombinant human (rh) VISTA-His protein; assay: direct ELISA, rhVISTA-His coated on plate; experiment n3
Description: as §1

[17] = molecular target: T2, recombinant human (rh) VISTA-His protein; assay: direct ELISA, rhVISTA-His coated on plate; experiment n2
Description: as §1

[18] = molecular target: T2, recombinant human (rh) VISTA-His protein; assay: indirect ELISA, rhVISTA-His captured by coated anti-His antibody; mean EC50 of n1-n3
Description: as §1

Molecule | percentage of the specific HTRF signal [1] | percentage of the specific HTRF signal [2] | percentage of the specific HTRF signal [3] | IC50 [4] | percentage of the specific HTRF signal [5] | percentage of the specific HTRF signal [6] | percentage of the specific HTRF signal [7] | percentage of the specific HTRF signal [8] | EC50 [9] | EC50 [10] | EC50 [11] | EC50 [12] | EC50 [13] | EC50 [14] | EC50 [15] | EC50 [16] | EC50 [17] | EC50 [18]
anti-VISTA R&D Systems #71261 (antibody) | 68% | 88% | 81% | 333 nM | 89% | 63% | 34% | 50% | – | – | – | – | – | – | – | – | – | –
anti-VISTA antibody Ab1 (N55D substitution in the CDR-H2) (antibody, human IgG1, kappa, V domains shown, N-terminal glutamine mainly in the pyroglutamic acid form; N-glycan at Asn298; most of the C-terminal lysines clipped, also called anti-VISTA Ab1) VH: QVQLVQSGAEVKKPGASVKISCKASGFSFTGYTMNWVRQAPGQGLEWIGLISPYDGGTSYAQKFQGRATLTVDTSTSTAYMELSSLRSEDTAVYYCARRAYGYAMDYWGQGTLVTVSS VL: EIVLTQSPATLSLSPGERVTMSCSASSSVSYMYWYQQKPGQAPRLLIYDTSNLASGVPARFSGSGSGTDYTLTISSMEPEDFAVYYCQQWSSYPFTFGQGTKLEIKR | – | – | – | 2.3 nM | – | – | – | – | 1.04 nM | 1.02 nM | 0.0465 nM | 0.0447 nM | 1.02 nM | 0.0501 nM | 0.0471 nM | 0.928 nM | 1.08 nM | 0.0471 nM
monoclonal antibody Ab3 (unmutated antibody) (antibody, human IgG1, kappa, V domains shown, partly deamidated at N55 (mixture of N55/N55, N55/D55 and D55/D55 charge variants), The batch is kept in the printed label of each row; also called Ab 3 batch 1; Ab 3 batch 2) VH: QVQLVQSGAEVKKPGASVKISCKASGFSFTGYTMNWVRQAPGQGLEWIGLISPYNGGTSYAQKFQGRATLTVDTSTSTAYMELSSLRSEDTAVYYCARRAYGYAMDYWGQGTLVTVSS VL: EIVLTQSPATLSLSPGERVTMSCSASSSVSYMYWYQQKPGQAPRLLIYDTSNLASGVPARFSGSGSGTDYTLTISSMEPEDFAVYYCQQWSSYPFTFGQGTKLEIKR | – | – | – | – | – | – | – | – | 0.641 nM and 1.1 nM | 0.671 nM and 0.961 nM | 0.0386 nM and 0.038 nM | 0.0342 nM and 0.0418 nM | 0.959 nM and 0.671 nM | 0.0458 nM and 0.0382 nM | 0.0393 nM | 0.645 nM and 0.901 nM | 0.728 nM and 0.877 nM | 0.0396 nM and 0.0393 nM

From US20240209094A1 (PIERRE FABRE MEDICAMENT, published 2024)
